From patent US20260055191A1

Biological target: purified total human IgA (human) (UniProt P11912)
Experiment: cell-based or functional assay

Chain of UniProt P11912 (P11912 whole entry): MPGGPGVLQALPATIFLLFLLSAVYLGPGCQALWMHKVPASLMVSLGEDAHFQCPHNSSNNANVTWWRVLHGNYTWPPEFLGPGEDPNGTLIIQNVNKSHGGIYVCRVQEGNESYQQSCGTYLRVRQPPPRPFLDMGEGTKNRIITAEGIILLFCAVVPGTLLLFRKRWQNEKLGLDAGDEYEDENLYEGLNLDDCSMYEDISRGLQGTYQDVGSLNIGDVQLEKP

B1: sCD89 glycoengineered polypeptide (receptor)
chain: QEGDFPMPFISAKSSPVIPLDGSVKIQCQAIREAYLTQLMIIKNSTYREIGRRLKFWNETDPEFVIDHMDANKAGRYQCQYRIGHYRFRYSDTLELVVTGLYGKPFLSADRGLVLMPGEQISLTCSSAHIPFDRFSLAKEGELSLPQHQSGEHPAQFSLGPVDLQVSGIYRCYGWYQRSPYLWSFPSNALELVVTGGGGANSTAPAPAPAHHHHHHHHHH
modifications: A2GalNAc2 N-glycans (82.8% A2GalNAc2) at three N-glycosylation sites: native N65 and N79 (numbering according to Uniprot P24071) and the site in the C-terminal glycotag; >95% all occupied
percent of human IgA target remaining in rat serum (total free+bound human IgA by ELISA) 6 hours after subcutaneous administration of 2.0 mg: < 5%
